Results as given in article doi:10.1101/2020.10.29.360743.

Target: AcoD, ATP-dependent DMSP lyase of Psychrobacter sp. D2 (Psychrobacter sp. D2)
Assay: SEC

A stoichiometry N of 2 was found for “AcoD, ATP-dependent DMSP lyase of Psychrobacter sp. D2 (enzyme)” in this work.
